Changes are numbered by the printed parent chain. No end group written: not given here.
T1: peptide CQNRYTDLVAIQNKNE
T1 peptide: CQNRYTDLVAIQNKNE-NH2

B1: mu MAb PB1.3 (antibody, V domains shown)
VH: EAQLQQSGPELVEPGASVKVSCKASGYTFTNYVMHWVKQKPGQGLEWIGFINPSNDGPKYNERFKNKATLTSDKSSSTAYMELSSLTSEVSAVYFCARARPGFDWYFDVWGAGTTVTVSS
VL: DIVMTQSQKFMSTSVGDRVSVTCKASQNVATNVVWYQQRPGQSPKALIYTASYRFSGVPERFSGSGSGTDFTLTITNVQSEDLADYFCQQYNNYPYTFGGGTKVEIQ
B2: reshaped MAb PB1.3, heavy chain CY1748RHA with light chain CY1748RLB (antibody, V domains shown)
VH: EAQLVQSGAEVKKPGASVKVSCKASGYTFTNYVMHWVRQAPGQRLEWMGFINPSNDGPKYNERFKNRVTITSDTSASTAYMELSSLRSEDTAVYYCARARPGFDWYFDVWGQGTLVTVSS
VL: DIQMTQSPSTLSASVGDRVTVTCKASQNVATNVVWYQQKPGEAPKALIYTASYRFSGVPSRFSGSGSGTDFTLTISSLQSDDFATYYCQQYNNYPYTFGQGTKLEIK
B3: reshaped MAb PB1.3 (HB/LD), IgG4 isotype (antibody, V domains shown)
VH: B2 VH with E1Q, A2V
VL: B2 VL with D70E
B4: reshaped MAb PB1.3, heavy chain CY1748RHA with light chain CY1748RLC (antibody, V domains shown)
VH: B2 VH
VL: B2 VL with S60E, D70E
B5: reshaped MAb PB1.3 (HA/LA), IgG1 isotype (antibody, V domains shown)
VH: B2 VH
VL: B2 VL with S60E

Legend:
peptide CQNRYTDLVAIQNKNE = molecular target: T1, peptide CQNRYTDLVAIQNKNE; test: indirect: soluble peptide as competitor in ELISA of PB1.3 on affinity purified P-selectin
Description: III. […] Dilutions of mu MAb PB1.3 in DPBS+1% BSA were mixed with either 0.35 mg/ml CQNRYT-[…] (SEQ ID No: 1) in PBS, or as a control, PBS alone. After 1 hr, 50 μl of each antibody dilution was added to the microtiter plate, and incubated for 1 hr. The plate was washed with DPBS, and a 1 to 1000 dilution of sheep anti-mouse IgG horseradish peroxidase conjugate in DPBS+ 1% BSA was added. After 1 hr, the plate was washed, the substrate TMB was added, and the color development was stopped and the plates read as above.

P-selectin Δ5CRP = P-selectin Δ5CRP (human, UniProt P16109); test: direct ELISA of COS cell supernatants
[1] = molecular target: T2, recombinant soluble P-selectin (Homo sapiens (Human), UniProt P16109); test: competitive ELISA on rsP-selectin; unlabelled PB1.3 against biotinylated PB1.3
Description: (§1) A 96-well plate (MICROTEST III, FALCON #3912) was coated with 50 μl/well of rsP-selectin (diluted to 2 μg/ml in DPBS) overnight at 4° C. or 90 min at 37° C. The plate was inverted and residual fluid was tapped away.
(§2) The coated plate and an additional blank plate were blocked with 200 µl/well of DPBS+1% bovine serum albumin (BSA, SIGMA #A-7888), for 1 h at room temperature. The blank plate was inverted and the residual blocking fluid was tapped away. The rsP-selectin coated plate was allow to continue blocking during the antibody dilution period. Serially diluted sample antibodies (in DPBS+1% BSA) were added to the blank plate at 50 µl/well. The initial concentrations of the antibodies were 100 µg/ml. Biotinylated-PB1.3 (diluted to 0.3 µg/ml in DPBS+1% BSA) was added to the sample antibodies in the blank plate, 50 µl/well, and mixed by pipetting up and down. The rsP-selectin coated plate was washed three times with DPBS. The sample antibody/biotinylated -PB1.3 mixture was pipetted into the plate coated with rsP-selectin, 50 µl/well, and allowed to incubate for one h at room temperature. The plate was then washed three times with DPBS.
(§3) Streptavidin horse radish peroxidase conjugate (PIERCE #21124) diluted 1:2000 in DPBS+1% BSA was added to the plate, 50 µl/well and allowed to incubate for 1 h at room temperature. The plate was then washed three times with DPBS.

[2] = molecular target: T2, recombinant soluble P-selectin; test: ELISA on plates coated with rsP-selectin, COS cell supernatants
Description: Media from the transfected COS cells were assayed by ELISA to quantify levels of human antibody produced and analyze capacity to bind to recombinant soluble P-selectin (rsP-selectin). Immulon microtiter plates ([…], #011-010-3355) were coated with 100 μl/well of a solution of goat anti-human IgG (whole molecule, SIGMA #I-1886) to a final concentration of 12.5 μg/ml or a solution of rsP-selectin (1.2 mg/ml) diluted in Dulbecco's phosphate buffered saline (DPBS). Plates were coated overnight at 4° C. or for 2 h at 37° C. The plates were then washed three times with DPBS. The plates were then blocked with 400 μl/well of DPBS+1% bovine serum albumin (BSA, SIGMA, #A-7888) for one h or longer at room temperature. The plates were then washed three times with DPBS.
Serial dilutions of the monoclonal antibodies in DPBS+ 1% BSA were added to the plates (100 μl/well), and the plates were incubated for 1 h at room temperature. The plates were then washed three times with DPBS. 100 μl/well of a second antibody (goat anti-human IgG peroxidase conjugate, SIGMA #A-8867) diluted 1 to 1000 in DPBS+ 1% BSA was added to the plates, and the plates were incubated for one h at room temperature. The plates were then washed three times with DPBS. […] The plates were read at 450 nm in a […] […]

[3] = molecular target: T2, recombinant soluble P-selectin; test: competitive ELISA on rsP-selectin; reference unlabelled PB1.3
Description: as §1, §2, §3

[4] = molecular target: T2, recombinant soluble P-selectin; test: competitive ELISA on rsP-selectin; competitor biotinylated PB1.3
Description: as §1, §2, §3

Binder | binding result [2] | binding relative to PB1.3 [3] [%] | other results
B1 |  |  | binding result (peptide CQNRYTDLVAIQNKNE): no binding (tested: 0.35 mg/ml); binding result (P-selectin Δ5CRP): no binding; IC50 [1]: 1 µg/mL
B2 | binds |  | 
B3 |  | 50 | 
B4 | binds |  | 
B5 |  | 50 | IC50 [4]: 2 µg/mL
